The record followed here is patent US20220409742A1, “NUCLEIC ACID NANOPARTICLES, PHARMACEUTICAL COMPOSITION COMPRISING SAME, DRUG COMPRISING DOXORUBICIN AND PREPARATION METHOD THEREFOR” (BAI YAO ZHI DA (BEIJING) NANOBIO TECHNOLOGY CO., LTD., priority 2018, published 2022).

Residue numbers refer to the chain shown, from its start. “And” between values parts separate entries of the source, which are not always exact repeats. Equal entries are not always repeated. {Biotin} = biotin attached at the strand end

B1: R-15: extension fragment deformation+core short-sequence RNA nanoparticle, SEQ ID NO:120-122, 3′ biotin on a-strand, 2′F (nucleic acid)
chain 1: GCGGCGAGCGGCGAGGAGCGUUGGGGCCGGAGGCCGG
chain 2: CCGGCCUCCGGCCCCUUCGGGGCCAGCCGCC
chain 3: GGCGGCAGGCCCCCAUAGCCCUCGCCGCUCGCCGC
modifications: chain 1: 3' {Biotin}, sugars by position and backbone not given here; chain 2: chemistry not given here; chain 3: chemistry not given here; three-strand RNA nanoparticle, 2'-F modified
B2: R-16: extension fragment deformation+core short-sequence RNA nanoparticle, SEQ ID NO:123-125, 3′ biotin on a-strand, 2′F (nucleic acid)
chain 1: B1 chain 1 with G16C, G23C
chain 2: B1 chain 2 with C15G, G20C, G21C
chain 3: B1 chain 3 with C11G, C12G, C20G
modifications: chain 1: 3' {Biotin}, sugars by position and backbone not given here; chain 2: chemistry not given here; chain 3: chemistry not given here; three-strand RNA nanoparticle, 2'-F modified
B3: R-17: extension fragment deformation+core short-sequence RNA nanoparticle, SEQ ID NO:126-128, 3′ biotin on a-strand, 2′F (nucleic acid)
chain 1: B1 chain 1
chain 2: B1 chain 2 with G20C, G21C
chain 3: B1 chain 3 with C11G, C12G
modifications: chain 1: 3' {Biotin}, sugars by position and backbone not given here; chain 2: chemistry not given here; chain 3: chemistry not given here; three-strand RNA nanoparticle, 2'-F modified
B4: R-18: extension fragment deformation+core short-sequence RNA nanoparticle, SEQ ID NO:129-131, 3′ biotin on a-strand, 2′F (nucleic acid)
chain 1: B1 chain 1 with G16C, G23C
chain 2: B1 chain 2 with C15G, G21C
chain 3: B1 chain 3 with C11G, C20G
modifications: chain 1: 3' {Biotin}, sugars by position and backbone not given here; chain 2: chemistry not given here; chain 3: chemistry not given here; three-strand RNA nanoparticle, 2'-F modified
B5: R-19: extension fragment deformation+core short-sequence RNA nanoparticle, SEQ ID NO:132-134, 3′ biotin on a-strand, 2′F (nucleic acid)
chain 1: B1 chain 1 with G16C, G23C
chain 2: B1 chain 2 with C15G, G21C, G22C
chain 3: B1 chain 3 with C10G, C11G, C20G
modifications: chain 1: 3' {Biotin}, sugars by position and backbone not given here; chain 2: chemistry not given here; chain 3: chemistry not given here; three-strand RNA nanoparticle, 2'-F modified
B6: D-7: conventional-sequence DNA nanoparticle, SEQ ID NO:117-119, without target head, thio modification (nucleic acid)
chain 1: CGCGCGCCCACGAGCGTTGCGGGCGCCGC
chain 2: GCGGCGCCCGCTTCGGCGGCAGGCGGC
chain 3: GCCGCCAGCCGCCCATAGCCGTGGGCGCGCG
modifications: DNA, backbone and methylation of C not given here; three-strand DNA nanoparticle, phosphorothioate modification
B7: D-2: conventional-sequence DNA nanoparticle, SEQ ID NO:102-104, EGFRapt target head, thio modification (nucleic acid)
chain 1: CGCGCGCCCAGCAGCGTTCGCGGGCGGCGGCCTTAGTAACGTGCTTTGATGTCGATTCGACAGGAGGC
chain 2: CGCCGCCCGCGTTCGCCGCCAGCCGCC
chain 3: GGCGGCAGGCGGCCATAGCGCTGGGCGCGCG
modifications: DNA, backbone and methylation of C not given here; DNA nanoparticle with EGFR aptamer head, phosphorothioate modification
B8: D-6: conventional-sequence DNA nanoparticle, SEQ ID NO:114-116, without target head, thio modification (nucleic acid)
chain 1: CGCGCGCCCAGCAGCGTTCGGGGCGCCGC
chain 2: GCGGCGCCCCGTTCGGCCGGCAGGCGGC
chain 3: GCCGCCAGCCGGCCCATAGCGCTGGGCGCGCG
modifications: DNA, backbone and methylation of C not given here; three-strand DNA nanoparticle, phosphorothioate modification

The nature of the first data set: Particle size measurement (DLS hydrodynamic size).
Conditions: not given
It counts as physicochemical. The source says: 1. Preparing a potential sample (conventional-sequence DNA self-assembly product D-7) and putting into a sample pool, opening a sample pool cover of an instrument, and placing the instrument;
2. opening software, and clicking a menu, so a manual measurement parameter setting dialog box appears;
3. setting a software detection parameter; and then
4. clicking Ok to complete the settings, while a measurement dialog box appears, clicking Start to start, a DLS measurement value result of a hydrodynamic size of the self-assembly product D-7 is as follows:
1. Preparing a potential sample (7 groups of extension fragment deformation+core short-sequence RNA) and putting into a sample pool, opening a sample pool cover of an instrument, and placing the instrument;
4. clicking Ok to complete the settings, while a measurement dialog box appears, clicking Start to start, a DLS measurement value result of a hydrodynamic size of the 7 groups of extension fragment deformation+core short-sequence RNA is as follows:
(1) Preparing a potential sample (7 groups of extension fragment deformation+core short-sequence DNA) and putting into a sample pool, opening a sample pool cover of an instrument, and placing the instrument;
(2) opening software, and clicking a menu, so a manual measurement parameter setting dialog box appears;
(3) setting a software detection parameter; and then
(4) clicking Ok to complete the settings, while a measurement dialog box appears, clicking Start to start, a DLS measurement value result of a hydrodynamic size of the 7 groups of extension fragment deformation+core short-sequence DNA is as follows: […]
The molecule B1 yielded a Mean particle size of 6.808 nm.
The molecule B2 came in with a Mean particle size of 6.978 nm.
In turn, B3 showed a Mean particle size of 7.592 nm.
With B4, the Mean particle size worked out at 7.520 nm.
B5 showed a Mean particle size of 6.936 nm.

The data set is the same for the next values; noted with them: detection times 1-3, listed as 1.
For the molecule B6, the “Particle size Z-Ave, single detection” value is 10.76 nm·days and 13.9 nm·days and 10.36 nm·days.

Still in this data set, the particulars now being: summary of 3 detections.
Consider B6, for which the “Particle size Z-Ave, Experiment result” value is recorded as 12.33 d.nm(±1.57 d.nm).

The next data set in a line: Doxorubicin loading rate, chemical loading (paraformaldehyde covalent linkage). The note with it: doxorubicin molecules per nucleic acid nanoparticle carrier. It counts as physicochemical. Here is the method: (1) Accurately weighing the doxorubicin (5.0 mg, 8.6 μmol, 40 eq.) and dissolving in the DEPC treated water (1.8 mL) and the PBS buffer solution (2.1 mL), adding 4% paraformaldehyde aqueous solution (0.4 mL) under cooling of an ice-water bath and uniformly mixing, enabling the mixed solution to be totally uniformly mixed with the RNA nanoparticles (215 nmol), and reacting for 72 hours at 4 DEG C. under a dark condition.
(2) Taking 10 μL of reaction solution and diluting for 10 times, using 50 μM of the doxorubicin aqueous solution and 310 ng/μL of the RNA nanoparticles as controls, and performing HPLC analysis according to equal volume injection. According to a peak area ratio of each component, it may be adjusted that reaction conversion is basically completed.
(3) Extracting the reaction solution by the chloroform (10 mL×3), and then adding 10 times of the anhydrous ethanol in volume, after uniformly mixing, keeping at 4 DEG C. in the dark and enabling a product to be adequately precipitated (4 hours). Centrifuging, transferring supernatant, and washing the solid product again by the ethanol, evaporating a solvent under reduced pressure and lower temperature, to obtain a loading product which is a dark red solid.
(5) Loading rate calculation:
1. preparing a known concentration of doxorubicin-PBS standard solution: 2 μM, 4 μM, 6 μM, 8 μM, and 10 μM, 100 μL each;
2. enabling the doxorubicin-loaded product to be dissolved in 100 μL of the PBS;
3. putting the standard solution and the doxorubicin-loaded product into a PCR plate, heating at 85 DEG C. for 5 min, and then cooling to the room temperature;
4. measuring an absorbance of the doxorubicin at 492 nm by using a microplate reader, drawing a standard curve (as shown in FIG. 11), and calculating the molar concentration of the doxorubicin in the loaded product;
5. measuring an absorbance of RNA at 260 nm by using a spectrophotometer, to obtain the mass concentration of the doxorubicin-loaded product contained in each sample; and
6. according to the doxorubicin molar concentration and the mass concentration of the doxorubicin-loaded product obtained by measuring, calculating a loading rate.
According to the chemical loading method (unless otherwise specified, the method is the same as that of Embodiment 5) of Embodiment 5, the above DNA nanoparticles in Embodiment 1, the RNA nanoparticles formed by the self-assembly of the R-1, R-2, R-3, R-4, R-5, R-6 and R-7 in Embodiment 2, and the DNA nanoparticles formed by the self-assembly of the D-2, D-6 and D-7 in Embodiment 4 are respectively used as doxorubicin loading carriers, doxorubicin loading rates measured are respectively as follows:
According to the chemical loading method (unless otherwise specified, the method is the same as that of Embodiment 5) of Embodiment 5, the RNA nanoparticles formed by the self-assembly of the previous R-15, R-16, R-17, R-18, R-19, R-20 and R-21 in Embodiment 11, and the DNA nanoparticles formed by the self-assembly of the D-8, D-9, D-10, D-11, D-12, D-13 and D-14 in Embodiment 12 are respectively used as doxorubicin loading carriers, doxorubicin loading rates measured are respectively as follows: […]
In the case of “R-1: short-sequence RNA nanoparticle, strands SEQ ID NO:55-57, c/u 2′F modification (chain 1 GGAGCGUUGG; chain 2 CCUUCGCCGY; chain 3 CGGCCAUAGCCC; 2'-F C/U, chemistry not fully specified)”, the doxorubicin loading rate was determined as 3.5.
On the same count and under the same terms, under “R-2: short-sequence RNA nanoparticle, strands SEQ ID NO:58-60, c/u 2′F modification (chain 1 GCAGCGUUCG; chain 2 CGUUCGCCGY; chain 3 CGGCCAUAGCGC; 2'-F C/U, chemistry not fully specified)” stands 2.4.
With “R-3: short-sequence RNA nanoparticle, strands SEQ ID NO:61-63, c/u 2′F modification (chain 1 CGAGCGUUGC; chain 2 GCUUCGCCGY; chain 3 CGGCCAUAGCCG; 2'-F C/U, chemistry not fully specified)”, the doxorubicin loading rate was 4.8.
“R-4: short-sequence RNA nanoparticle, strands SEQ ID NO:64-66, c/u 2′F modification (chain 1 GGAGCGUUGG; chain 2 CCUUCGGGGY; chain 3 CCCCCAUAGCCC; 2'-F C/U, chemistry not fully specified)” had a doxorubicin loading rate of 3.5.
For “R-5: short-sequence RNA nanoparticle, strands SEQ ID NO:67-69, c/u 2′F modification (chain 1 GCAGCGUUCG; chain 2 CGUUCGGCGY; chain 3 CGCCCAUAGCGC; 2'-F C/U, chemistry not fully specified)”, the doxorubicin loading rate worked out at 12.5.
“R-6: short-sequence RNA nanoparticle, strands SEQ ID NO:70-72, c/u 2′F modification (chain 1 GCAGCGUUCG; chain 2 CGUUCGGCCY; chain 3 GGCCCAUAGCGC; 2'-F C/U, chemistry not fully specified)”: the doxorubicin loading rate was found to be 2.8.
In turn, B7 gave a doxorubicin loading rate of 14.
Same read-out and setting: under B8 stands 11.
Consider B6, for which the doxorubicin loading rate is reported as 10.
